Paper PMC11046469, “Leveraging a Phage-Encoded Noncanonical Amino Acid: A Novel Pathway to Potent and Selective Epigenetic Reader Protein Inhibitors” (ACS Central Science, 2024)

Target: T1, ENL YEATS domain (AviSUMO-ENL YEATS) (Homo sapiens, UniProt Q03111)
T1 construct: encoding ENL YEATS (aa 1−148) was cloned in pET28a-; made in house; host or cells: E. coli BL21(DE3pLysS), co-expressed with BirA (pBirAcm)
T1 sequence (Q03111 1-148): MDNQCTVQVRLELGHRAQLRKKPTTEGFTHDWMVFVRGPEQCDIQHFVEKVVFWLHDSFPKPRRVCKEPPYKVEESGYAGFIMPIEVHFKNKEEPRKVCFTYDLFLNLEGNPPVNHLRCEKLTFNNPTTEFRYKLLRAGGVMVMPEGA
Assay: Phage panning of BuK-containing 7-mer library against AviSUMO-ENL YEATS with Illumina NGS abundance
Settings: sheet ENLR3: round 3 of panning against ENL YEATS; TAG = amber codon (BuK); 7-mer library positions V1-V7
Source text: We utilized a previously established amber-obligate 7-mer phage display library to develop a phage display library enriched with BuK-containing 7-mer peptides. For detailed characterizations, including analysis of amber codon percentages, NNK trinucleotide analysis, and amino acid distribution at each position within the library, please refer to the work of Tharp et al.[10] Furthermore, the comprehensive raw NGS data for the amber-obligate 7-mer phage library can be found in the NCBI’s Sequence Read Archive, under the accession ID PRJNA606283. To produce the BuK-containing 7-mer phage library, the phages were produced in the presence of 5 mM BuK using TOP10 cells harboring the following three plasmids: (1) pADL-gIII, which contains the 7-mer amber-obligate peptide-coding DNA library positioned at the N-terminus of M13 pIII gene; (2) pCDF-BuKRS, which encodes BuKRS and its cognate tRNA^Pyl for the genetic incorporation of BuK at amber codons in the 7-mer library; and (3) M13KO7TAA, a helper phage plasmid engineered to have a TAA mutation at pIII so that its lack of a functional pIII allows an efficient multivalent display of the 7-mer library. The ENL YEATS domain containing an N-terminal AviSUMO-Tag was recombinantly expressed in E. coli together with BirA, a biotin ligase, for site-specific biotinylation at the AviTag. The biotinylated AviSUMO-ENL YEATS was immobilized on streptavidin-coated magnetic beads for panning with the BuK-containing phages. […] Phage libraries collected from the first and third rounds of selection were sequenced using Illumina next generation sequencing (NGS) and all sequenced data are available through the NCBI SRA database (Project PRJNA1041845). To prevent possible sequencing errors from affecting conclusions, sequences were filtered using previously published paired-end processing,[10] where any sequences containing more than one mismatch in the nonlibrary region or any mismatch in the library region were discarded. The NGS data provided DNA sequences encompassing both the library and nonlibrary regions. In our analysis, we included data from the nonlibrary region as a stringent quality control measure to filter out low-quality data. For our analysis, we utilized 51 nucleotides from the NGS output, with 21 nucleotides encoding the library region and an additional 30 nucleotides for the nonlibrary region. […] Among all the sequences, only 85 of them contained more than 100 copies (blue area), while the remaining sequences all had low abundances (<10^2 copies, dark and light gray areas), which constituted 85.2% of the first round population. After three panning rounds, the selection converged to two highly enriched sequences: YDVYCYX (ENL-S1) and WWIIEXG (ENL-S2, X denotes BuK). Out of 551 different unique sequences collected from the third round, ENL-S1 and ENL-S2 represented 85% of the entire library (Figure 2A and Figures S6–S8). Both peptide sequences corresponded to their own unique DNA sequence, rather than there being varying codons encoding the same amino acids (Figure S7). […] Two motifs were found in the majority of sequences with high abundance (greater than 0.1%) (Figure S6). A Y(C/L)Y pattern was identified in the residues adjacent to BuK in four of the eight top sequences. Also, an H(L/Y)(T/V)LFXG (X denotes BuK) motif was observed, albeit at lower abundances, in two of the top sequences. In the initial round of selection, we observed that only a small percentage of phages were eluted, which aligns with typical outcomes in phage selection experiments since only a low copy number of phages can bind to the target.[10],[45] With each successive round of selection, we noted a gradual increase in the percentage of phages eluted. This incremental, rather than sharp, increase was attributed to the intensification of selection pressures, such as the application of more stringent washing protocols. We aimed for the incremental increase to retain potent clones with low copy numbers from the previous selection cycle. […]

Substance	n (number of NGS reads of the unique amino acid sequence)	percent (share of sequence reads)
HSTLFTAGG	2	0.001821%
QCGPRYD	11	0.01002%
SWIIETAGG	5	0.004553%
SVIYCYTAG	9	0.008196%
HTRSMTAGN	1	0.0009106%
YHVYCYTAG	2	0.001821%
HLTFFTAGG	3	0.002732%
QCGPLTAGD	10	0.009106%
QCCPRTAGD	10	0.009106%
HYVLFYG	1	0.0009106%
SWYITFTAG	79	0.07194%
QFGPRTAGD	6	0.005464%
CHMLCTAGD	56	0.05099%
YVGPWTAGG	41	0.03734%
WWIIETAGV	16	0.01457%
SQCTAGECA	2	0.001821%
YDVYCNTAG	3	0.002732%
YDVYCFTAG	2	0.001821%
CWVCLPH	1	0.0009106%
SLMMCQTAG	2	0.001821%
CWIIETAGG	22	0.02003%
HHVLFTAGG	1	0.0009106%
QCGSRTAGD	3	0.002732%
WWIIETAGR	6	0.005464%

Substance	n (number of NGS reads of the unique amino acid sequence)	percent (share of sequence reads)
QCGPRTAGD	9049	8.24%
LWIFTPTAG	4	0.003642%
WTAGIIETAGG	4	0.003642%
YDVYSYTAG	3	0.002732%
LYGSTAGDC	1	0.0009106%
TAGTLWNVG	2	0.001821%
WWIIEWG	3	0.002732%
HLTLFTAGC	2	0.001821%
ILIYTAGGD	4	0.003642%
HDVYCYTAG	13	0.01184%
WLIIETAGD	2	0.001821%
QCGTRTAGD	13	0.01184%
WWIIDTAGG	29	0.02641%
HLTLFTAGG	2802	2.552%
YLYTAGVPC	1006	0.9161%
DMFRSTAGI	1	0.0009106%
QCGLRTAGD	4	0.003642%
LAYCTAGHN	2	0.001821%
WCGPRTAGD	2	0.001821%
YDVYCHTAG	13	0.01184%
HCGPRTAGD	10	0.009106%
WWIIGTAGG	6	0.005464%
YDVYRYTAG	9	0.008196%

Same assay, conditions: sheet ENLR3: round 3 of selection against ENL YEATS; TAG = amber codon (BuK)

Substance	n (number of NGS reads of the 7-mer sequence V1-V7)	percent (share of NGS reads of the 7-mer sequence V1-V7)
QCGPPTAGD	1	0.0009106%
YDGYCYTAG	1	0.0009106%
SLYITFTAG	1	0.0009106%
WWVLVTAGS	1	0.0009106%
TAGSSIITC	1	0.0009106%
WWIFETAGG	1	0.0009106%
QCGPRTAGV	1	0.0009106%
TAGSGVASC	1	0.0009106%
RTAGTESQL	1	0.0009106%
YLYLVPC	1	0.0009106%
WWILETAGG	1	0.0009106%
YDVYCSTAG	1	0.0009106%
QCAPRTAGD	1	0.0009106%
YWTAGCARV	1	0.0009106%
SWSITFTAG	1	0.0009106%
YVCPWTAGG	1	0.0009106%
VWVSTAGMT	1	0.0009106%
SLERTAGGF	1	0.0009106%
RLTLFTAGG	1	0.0009106%
NTITAGISL	1	0.0009106%
YRWVFSF	1	0.0009106%
